Our source for the stoichiometry N values is publication doi:10.1101/2022.02.13.480273.

This experiment addresses GST-RABL2^S37N (Chlamydomonas reinhardtii). Description: SEC.

B1: ARL3^T30N (bacterially expressed) (natural protein)
chain: MGLLSLIRGLKKKEGEARILVLGLDNAGKNTILKALSEEDITTITPTQGFNIKSLSRDGFNLKIWDIGGQKSIRPYWRNYFDQTDALIYVIDSADSKRLSESEFELTELLQEEKMTGVPLLVFANKQDLVGALAADEIASTLDLTSIRDRPWQIQACSAKQGTGLKEGMEWMMKQVK
The molecule B1 displayed a stoichiometry N of 1.

In general, stoichiometry N refers to the number of molecules, sites or subunits per partner or assembly.
